Assay results taken from article PMC6509358, “A Secreted RNA Binding Protein Forms RNA-Stabilizing Granules in the Honeybee Royal Jelly”.
One block for each molecule: values may come before it.

What was measured:
[1] = molecular target: major royal jelly protein 3 (MRJP-3) (Apis mellifera) (UniProt Q17060); assay: SEC; MRJP-3 concentrated to 100 uM, 16/100 Superdex 200, eluted at 0.5 ml/min in RJ buffer (pH 4.0), no RNA; column calibrated with mass standards; monomer to higher-order oligomer
[2] = molecular target: major royal jelly protein 3 (MRJP-3) (Apis mellifera) (UniProt Q17060); assay: MST; increasing unlabelled MRJP-3 added to fluorescently labelled MRJP-3 monomer; Monolith NT.115, 25 °C, RJ buffer with 0.01% Tween 20; apparent Kd of self-association; signal stable from approximately 40 uM added MRJP-3
MRJP-3 (jelly-purified) [3] = molecular target: T1, MRJP-3 (jelly-purified) (Apis mellifera, UniProt Q17060 21-544); assay: MST; second of three binding phases; MST: RJ buffer (composition not in material) + 0.01% Tween 20, 25 C; EMSA: room temperature 0.5-3 h, 0.8% agarose, 1xTAE; conditions: protein: native; label: Alexa Fluor 488 (Ulysis) for MST
T1 sequence: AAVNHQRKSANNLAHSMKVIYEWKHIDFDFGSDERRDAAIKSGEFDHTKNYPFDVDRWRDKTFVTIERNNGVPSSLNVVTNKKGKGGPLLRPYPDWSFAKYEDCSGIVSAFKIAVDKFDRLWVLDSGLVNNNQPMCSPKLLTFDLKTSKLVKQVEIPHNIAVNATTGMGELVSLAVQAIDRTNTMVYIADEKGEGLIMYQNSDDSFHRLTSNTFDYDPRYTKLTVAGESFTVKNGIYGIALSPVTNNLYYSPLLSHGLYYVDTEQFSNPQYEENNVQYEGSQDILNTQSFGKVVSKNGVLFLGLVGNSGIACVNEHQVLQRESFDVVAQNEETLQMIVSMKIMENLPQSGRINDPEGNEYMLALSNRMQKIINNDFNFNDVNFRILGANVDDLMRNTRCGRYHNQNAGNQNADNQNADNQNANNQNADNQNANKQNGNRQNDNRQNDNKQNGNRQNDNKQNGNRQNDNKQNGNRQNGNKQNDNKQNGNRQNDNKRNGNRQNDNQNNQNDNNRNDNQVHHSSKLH

MRJP-3 (jelly-purified) [4] = molecular target: T1, MRJP-3 (jelly-purified); assay: MST; first of three binding phases; MST: RJ buffer (composition not in material) + 0.01% Tween 20, 25 C; EMSA: room temperature 0.5-3 h, 0.8% agarose, 1xTAE; conditions: protein: native; label: Alexa Fluor 488 (Ulysis) for MST
MRJP-3 (jelly-purified) [5] = molecular target: T1, MRJP-3 (jelly-purified); assay: MST; third of three binding phases; MST: RJ buffer (composition not in material) + 0.01% Tween 20, 25 C; EMSA: room temperature 0.5-3 h, 0.8% agarose, 1xTAE; conditions: protein: native; label: Alexa Fluor 488 (Ulysis) for MST
MRJP-3 (jelly-purified) [6] = molecular target: T1, MRJP-3 (jelly-purified); assay: EMSA; 42.8 uM protein; MST: RJ buffer (composition not in material) + 0.01% Tween 20, 25 C; EMSA: room temperature 0.5-3 h, 0.8% agarose, 1xTAE; conditions: protein: native
MRJP-3 (jelly-purified) [7] = molecular target: T1, MRJP-3 (jelly-purified); assay: EMSA; 42.8 uM protein, 0.27 uM RNA; MST: RJ buffer (composition not in material) + 0.01% Tween 20, 25 C; EMSA: room temperature 0.5-3 h, 0.8% agarose, 1xTAE; conditions: protein: native

stoichiometry N (monomer units) [1]: 20
Kd [2]: 3500 nM
Molecule: major royal jelly protein 3 (MRJP-3) (from UniProt Q17060 21-544) (natural protein)

Molecule: UCAUAUGGGCUCACUGUUACUA (ssRNA) [22 nt ssRNA]
Kd (MRJP-3 (jelly-purified) [3]): 300 nM
Kd (MRJP-3 (jelly-purified) [4]): 4 nM
Kd (MRJP-3 (jelly-purified) [5]): 25000 nM

Molecule: UGUGUUUAUAGCGGAUUU (ssRNA) [18 nt ssRNA]
binding result (MRJP-3 (jelly-purified) [6]): binds

Molecule: ACGCUUCUAACUUCAAGAUUUUACACAAUCAUAUGGGCUCACUGUUACUA (ssRNA) [50 nt ssRNA]
binding result (MRJP-3 (jelly-purified) [7]): binds
